The assay has as its target T1, Aβ monomers on the SPR chip: biotinylated Aβ 11–28 (Homo sapiens (from His13), UniProt P05067, also: biotin, position not given here).
T1 construct: amyloid-β peptide, residues 11-28; the methods name only 11–28; also called monomer Aβ chips
T1 chain: EVHHQKLVFFAEDVGSNK
The assay can be described thus: SPR; BIAcore T200, single-cycle kinetics; biotinylated Aβ (11–28 or oligomeric 1–42) captured on streptavidin-coupled CM5 chip (100–200 RU); antibody as analyte 0.8–500 nM in HBS-P pH 7.4, 0.15 M NaCl; one-to-one Langmuir model. The conditions noted are these: both partners purified. Background: SPR reads the build-up and loss of mass on a sensor chip optically.

As a reminder, the Kd is the constant that tells how readily two partners part at equilibrium.

Where no end group is shown, it is not given here.

B1: Crenezumab, fully humanized anti-Aβ monoclonal IgG4 (antibody, V domains shown)
VH: EVQLVESGGGLVQPGGSLRLSCAASGFTFSSYGMSWVRQAPGKGLELVASINSNGGSTYYPDSVKGRFTISRDNAKNSLYLQMNSLRAEDTAVYYCASGDYWGQGTTVTVSS
VL: DIVMTQSPLSLPVTPGEPASISCRSSQSLVYSNGDTYLHWYLQKPGQSPQLLIYKVSNRFSGVPDRFSGSGSGTDFTLKISRVEAEDVGVYYCSQSTHVPWTFGQGTKVEIK
notes: crenezumab VH: as the VH of the heavy chain of m1 (PDB 5KNA / 5KMV) but without the T108L change; IgG4 heavy chain constant region; as the light chain of m1 (unaltered crenezumab light chain); IgG4; also called full-length IgG4; copies: 2 + 2
Molecule B1 gave an equilibrium dissociation constant (Kd) of 3 to 5 nM.

For the origin of these results see article PMC5171940, “Structure of Crenezumab Complex with Aβ Shows Loss of β-Hairpin” (Scientific Reports, 2016).
